# Test results published in the Immune Epitope Database (IEDB).
# How the values were obtained:
# HLA-B*07:02 [1] = experiment: IEDB peptide-MHC binding, purified MHC/competitive/radioactivity; filed as Kd, often an IC50 or EC50 that approximates it; ≥ and ≤ were set here for values at or beyond the usual limits of such assays
# HLA-B*15:01 [2] = experiment: as above
# HLA-A*02:01 [3] = experiment: IEDB peptide-MHC binding, purified MHC/competitive/fluorescence; ≥ and ≤ were set here for values at or beyond the usual limits of such assays
# HLA-A*24:02 [4] = experiment: as above
# HLA-A*29:02 = experiment: IEDB peptide-MHC binding, purified MHC/competitive/radioactivity; filed as Kd, often an IC50 or EC50 that approximates it; ≥ and ≤ were set here for values at or beyond the usual limits of such assays
# HLA-A*24:02 [5] = experiment: as above
# HLA-A*23:01 = experiment: as above
# HLA-B*18:01 = experiment: IEDB peptide-MHC binding, purified MHC/direct/fluorescence; filed as Kd, often an IC50 or EC50 that approximates it; ≥ and ≤ were set here for values at or beyond the usual limits of such assays
# HLA-B*40:01 = experiment: as above
# HLA-B*44:02 [6] = experiment: as above
# HLA-A*02:06 = experiment: IEDB peptide-MHC binding, purified MHC/competitive/radioactivity; filed as Kd, often an IC50 or EC50 that approximates it; ≥ and ≤ were set here for values at or beyond the usual limits of such assays; details: source organism: Dengue virus 2 Jamaica/1409/1983
# HLA-B*44:02 [7] = experiment: as above
# HLA-B*44:03 = experiment: as above
# HLA-B*08:01 [8] = experiment: as above; details: source organism: Vaccinia virus WR
# HLA-B*27:05 = experiment: IEDB peptide-MHC binding, purified MHC/direct/fluorescence; filed as Kd, often an IC50 or EC50 that approximates it; ≥ and ≤ were set here for values at or beyond the usual limits of such assays; details: source organism: Brucella suis
# HLA-A*02:01 [9] = experiment: as above; details: source organism: Brucella suis
# HLA-B*15:01 [10] = experiment: as above; details: source organism: Brucella suis
# HLA-A*01:01 = experiment: as above; details: source organism: Brucella suis
# HLA-A*31:01 = experiment: as above; details: source organism: Brucella suis
# HLA-A*11:01 = experiment: as above; details: source organism: Brucella suis
# HLA-B*07:02 [11] = experiment: as above; details: source organism: Brucella suis
# HLA-B*08:01 [12] = experiment: as above; details: source organism: Brucella suis
# HLA-A*26:01 = experiment: as above; details: source organism: Brucella suis
# HLA-A*03:01 = experiment: as above; details: source organism: Brucella suis
# HLA-B*58:01 = experiment: as above
# HLA-A*69:01 = experiment: as above; details: source organism: Brucella suis
# HLA-B*57:01 = experiment: as above; details: source organism: Bacillus cereus
# [13] = source organism: Dengue virus 2 Jamaica/1409/1983
# [14] = source organism: Vaccinia virus WR
# [15] = source organism: Sudan ebolavirus
# [16] = source organism: Lymphocytic choriomeningitis virus (strain Armstrong)
# [17] = source organism: Zaire ebolavirus
# [18] = source organism: Vaccinia virus Copenhagen
# [19] = source organism: Dengue virus 3 Martinique/1243/1999
# [20] = source organism: Mammarenavirus brazilense
# [21] = source organism: Dengue virus 1 Brazil/97-11/1997
# [22] = source organism: Dengue virus 4 Dominica/814669/1981
# [23] = source organism: Mammarenavirus guanaritoense
# [24] = source organism: Mammarenavirus juninense
sequence,measurement,setting,value
LARVGRERL,Kd,HLA-B*07:02 [1]; [13],298 nM
VPLQWIASA,Kd,HLA-B*07:02 [1]; source organism: Dengue virus 3 Sri Lanka/1266/2000,178 nM
SMKYLMLLF,Kd,HLA-B*15:01 [2]; [14],3.84 nM
NITDKINQI,IC50,HLA-A*02:01 [3]; [15],43700 nM
same,IC50,HLA-A*24:02 [4]; [15],5960 nM
SARGLCAHI,Kd,HLA-B*15:01 [2]; [14],1220 nM
QHNAAGIAW,IC50,HLA-A*24:02 [4]; [15],21200 nM
QYLIIQNRTW,Kd,HLA-A*29:02; [16],687 nM
same,Kd,HLA-A*24:02 [5]; [16],693 nM
same,Kd,HLA-A*23:01; [16],57.4 nM
KENGVDLSV,Kd,HLA-B*18:01; source organism: West Nile virus,5220 nM
FRFEVKKRD,IC50,HLA-A*02:01 [3]; [17],≥ 733000 nM
same,IC50,HLA-A*24:02 [4]; [17],19500 nM
VHSQGREAA,IC50,HLA-A*02:01 [3]; [17],40400 nM
same,IC50,HLA-A*24:02 [4]; [17],1900 nM
TSGKYFSTF,Kd,HLA-B*15:01 [2]; [18],85.9 nM
SYGEYQSYS,IC50,HLA-A*24:02 [4]; [17],52300 nM
RSMPGTRRVM,Kd,HLA-B*07:02 [1]; [19],91.9 nM
SLIYLCTFM,Kd,HLA-B*15:01 [2]; [14],4.45 nM
YECETYKEL,Kd,HLA-B*40:01; source organism: Amur virus,14.8 nM
same,Kd,HLA-B*44:02 [6]; source organism: Amur virus,≥ 20000 nM
same,Kd,HLA-B*18:01; source organism: Amur virus,5.3 nM
LSHLSLGLI,Kd,HLA-A*29:02; [20],9100 nM
same,Kd,HLA-A*24:02 [5]; [20],≥ 21000 nM
same,Kd,HLA-A*23:01; [20],7760 nM
LFMALVAFL,Kd,HLA-A*24:02 [5]; [13],8200 nM
VRSETKQKF,IC50,HLA-A*24:02 [4]; source organism: Vaccinia virus,1820 nM
SIILEFFLI,Kd,HLA-A*02:06,1.59 nM
same,Kd,HLA-A*24:02 [5]; [13],1250 nM
SSQVKCCHY,Kd,HLA-B*15:01 [2]; [14],347 nM
AQKRTAAGIM,Kd,HLA-B*15:01 [2]; [21],25.6 nM
LMCPDECPG,Kd,HLA-B*15:01 [2]; [14],899 nM
KFLLIHQGM,IC50,HLA-A*02:01 [3]; [17],≥ 150000 nM
same,IC50,HLA-A*24:02 [4]; [17],256 nM
LENVMWKQI,Kd,HLA-B*44:02 [7]; [22],105 nM
same,Kd,HLA-B*44:03; [22],157 nM
APHHKILAKA,Kd,HLA-B*07:02 [1]; source organism: Dengue virus 4 Philippines/H241/1956,407 nM
FIYLLFASM,Kd,HLA-B*15:01 [2]; [14],999 nM
same,Kd,HLA-B*08:01 [8],1680 nM
RFEVKKRDG,IC50,HLA-A*02:01 [3]; [17],≥ 568000 nM
same,IC50,HLA-A*24:02 [4]; [17],≥ 81100 nM
SGTETKITF,IC50,HLA-A*24:02 [4]; [18],11300 nM
DVIGNDRQE,Kd,HLA-B*40:01; source organism: Brucella suis,≥ 20000 nM
same,Kd,HLA-B*27:05,≥ 20000 nM
same,Kd,HLA-A*02:01 [9],≥ 20000 nM
same,Kd,HLA-B*15:01 [10],≥ 20000 nM
same,Kd,HLA-B*44:02 [6]; source organism: Brucella suis,≥ 20000 nM
same,Kd,HLA-A*01:01,≥ 20000 nM
same,Kd,HLA-A*31:01,≥ 20000 nM
same,Kd,HLA-A*11:01,≥ 20000 nM
same,Kd,HLA-B*07:02 [11],≥ 20000 nM
same,Kd,HLA-B*08:01 [12],≥ 20000 nM
same,Kd,HLA-A*26:01,≥ 20000 nM
same,Kd,HLA-A*03:01,≥ 20000 nM
same,Kd,HLA-B*58:01; source organism: Brucella suis,≥ 20000 nM
same,Kd,HLA-A*69:01,≥ 20000 nM
LGTIYGFIW,Kd,HLA-B*57:01,521 nM
same,Kd,HLA-B*58:01; source organism: Bacillus cereus,6.3 nM
QEGAMHTAL,Kd,HLA-B*44:02 [6]; source organism: Dengue virus,6660 nM
same,Kd,HLA-B*18:01; source organism: Dengue virus,39.5 nM
NEHKSTWHY,Kd,HLA-B*44:02 [7]; [21],84.1 nM
same,Kd,HLA-B*44:03; [21],173 nM
LGKCGSCVY,Kd,HLA-B*15:01 [2]; [19],110 nM
FFQDIPIFF,Kd,HLA-A*29:02; [23],0.08 nM
same,Kd,HLA-A*24:02 [5]; [23],159 nM
same,Kd,HLA-A*23:01; [23],10.3 nM
IESEKNETW,Kd,HLA-B*44:02 [7]; [21],87 nM
same,Kd,HLA-B*44:03; [21],279 nM
ERPVILSLP,IC50,HLA-A*24:02 [4]; source organism: Variola virus,18400 nM
IQTSGTTTIF,Kd,HLA-B*15:01 [2]; [21],5.3 nM
MLMLVNDRLL,Kd,HLA-A*29:02; [24],≥ 20000 nM
same,Kd,HLA-A*24:02 [5]; [24],≥ 70300 nM
same,Kd,HLA-A*23:01; [24],11400 nM
